The values below come from PMC2865030 (Biochemical Journal, 2008).

B1: Tah1 (TPR-containing protein associated with Hsp90) (natural protein)
chain: MSQFEKQKEQGNSLFKQGLYREAVHCYDQLITAQPQNPVGYSNKAMALIKLGEYTQAIQMCQQGLRYTSTAEHVAIRSKLQYRLELAQGAVGSVQIPVVEVDELPEGYDRS

Holding throughout (experiment): ITC
A general note: ITC needs no label: the signal is the heat of the interaction.

In experiment [1] the target is B1.
Experiment [2] deals with yeast Ssa1 (Hsp70, His-tagged) (yeast, UniProt P10591 1-642).
Chain of yeast Ssa1 (Hsp70, His-tagged) (P10591 whole entry): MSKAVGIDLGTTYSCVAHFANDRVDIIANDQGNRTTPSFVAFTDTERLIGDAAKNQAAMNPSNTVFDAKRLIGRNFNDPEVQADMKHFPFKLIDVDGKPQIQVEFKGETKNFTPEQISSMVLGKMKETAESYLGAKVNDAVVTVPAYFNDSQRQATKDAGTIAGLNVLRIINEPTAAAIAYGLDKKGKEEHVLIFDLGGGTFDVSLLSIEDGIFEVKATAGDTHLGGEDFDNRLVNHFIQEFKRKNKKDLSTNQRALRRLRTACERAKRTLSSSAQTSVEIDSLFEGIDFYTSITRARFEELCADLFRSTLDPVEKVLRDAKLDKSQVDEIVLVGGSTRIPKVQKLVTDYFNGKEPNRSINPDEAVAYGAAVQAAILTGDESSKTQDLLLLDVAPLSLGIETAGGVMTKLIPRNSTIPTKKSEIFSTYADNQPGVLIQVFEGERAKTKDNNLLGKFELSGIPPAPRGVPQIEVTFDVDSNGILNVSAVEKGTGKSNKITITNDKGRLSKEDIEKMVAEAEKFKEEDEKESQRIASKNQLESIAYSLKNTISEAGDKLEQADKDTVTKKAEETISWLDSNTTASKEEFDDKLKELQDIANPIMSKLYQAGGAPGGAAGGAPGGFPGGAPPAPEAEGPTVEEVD
Experiment [3] concerns the target human Hsp90β (His-tagged) (human, UniProt P08238 1-724).
Another experiment has as its target human Hsp90α (human, UniProt P07900 1-732).

Chain of human Hsp90β (His-tagged) (P08238 whole entry): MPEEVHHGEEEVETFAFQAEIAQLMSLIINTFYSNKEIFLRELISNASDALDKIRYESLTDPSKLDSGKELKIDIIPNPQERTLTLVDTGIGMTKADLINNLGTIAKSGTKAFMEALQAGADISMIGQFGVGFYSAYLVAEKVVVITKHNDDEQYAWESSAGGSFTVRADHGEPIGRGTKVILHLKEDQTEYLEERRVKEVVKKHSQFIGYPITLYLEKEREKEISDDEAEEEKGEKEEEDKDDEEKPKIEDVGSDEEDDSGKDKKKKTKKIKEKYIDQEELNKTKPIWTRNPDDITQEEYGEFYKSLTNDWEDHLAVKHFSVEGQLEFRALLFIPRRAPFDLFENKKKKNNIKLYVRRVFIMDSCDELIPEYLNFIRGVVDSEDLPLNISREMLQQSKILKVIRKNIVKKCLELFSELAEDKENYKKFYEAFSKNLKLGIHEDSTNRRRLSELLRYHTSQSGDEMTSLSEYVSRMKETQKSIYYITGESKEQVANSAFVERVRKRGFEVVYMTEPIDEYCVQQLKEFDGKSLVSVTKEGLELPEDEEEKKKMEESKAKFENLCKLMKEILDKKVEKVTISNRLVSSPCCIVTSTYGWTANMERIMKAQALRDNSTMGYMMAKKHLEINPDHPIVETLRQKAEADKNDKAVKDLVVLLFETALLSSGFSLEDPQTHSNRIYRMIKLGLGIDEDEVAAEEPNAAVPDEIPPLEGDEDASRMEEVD

With DDTSRMEEVD [DDTSRMEEVD decapeptide (C-terminal end of human Hsp90α)], in experiment [1], the affinity, expressed as Kd, was 0.9 ± 0.06 µM and the “stoichiometry N” value turned out to be 1.1.

PTVEEVD [PTVEEVD heptapeptide (C-terminal end of Ssa1)]: in experiment [1], the Kd was 10.6 ± 1.4 µM and the “stoichiometry N” value was determined as 1.

On to EDASRMEEVD [EDASRMEEVD decapeptide (C-terminal end of human Hsp90β)], for which, in experiment [1], the equilibrium dissociation constant (Kd) amounted to 1 ± 0.19 µM and the “stoichiometry N” value is 0.81.

Regarding MEEVD [MEEVD pentapeptide (C-terminal end of yeast Hsp90)], in experiment [1], the “stoichiometry N” value is 1.1.

For VEEVD [VEEVD pentapeptide (C-terminal end of Ssa1)], binding in experiment [1] was put at a Kd of 48.8 ± 5.5 µM.

For the molecule B1, the Kd in experiment [2] was 16 ± 2.5 µM; in experiment [3], 340 ± 70 nM; in the experiment with human Hsp90α it was 330 ± 30 nM. Also, the “stoichiometry N” value was determined as 0.84 in experiment [3] and 1.1 with human Hsp90α.

For TEMEEVD [TEMEEVD heptapeptide (C-terminal end of yeast Hsp90)], in experiment [1], the Kd worked out at 0.95 ± 0.04 µM and the “stoichiometry N” value was 1.2.

Regarding AEGPTVEEVD [AEGPTVEEVD decapeptide (C-terminal end of Ssa1, wild-type sequence)], in experiment [1], binding was characterised by a dissociation constant (Kd) of 28.9 ± 3.1 µM and the “stoichiometry N” value worked out at 1.2.

In general, Kd refers to a measure of binding affinity in units of concentration. A higher Kd goes with weaker binding. A word on the stoichiometry N: it is a count of units in the complex or per binding partner.
